Laboratory results: the RNAGym collection of RNA variant scans (doi:10.7554/elife.80360)

B1: HDV Ribozyme (parent)
chain: GGCCGGCAUGGUCCCAGCCUCCUCGCUGGCGCCGGCUGGGCAACAUUCCGAGGGGACCGUCCCCUCGGUAAUGGCGAAUGGGACCCA

Variants of: B1
Experiment: self-cleavage, relative activity (ratio to wild type); higher = more cleavage; co-transcriptional

In order of falling self-cleavage:
1. GGCCGGCAUGGUCCCAGCCUCCUCGCUGGCGCCGGCUGGGCAACAUUCUGAGGGGACCGUCUCCUCGGUAAUGGCGAAUGGGACCCA [C49U C62U]  1.17
2. GGCCGGCUUGGUCCCAGCCUCCUCGCUGGCGCCGGCUGGGCAACAUUCCGAGGGGAACGUCCCCUCGGUAAUGGCGAAUGGGACCCA [A8U C57A]  1.05
3. GGCCGGCAUGGUCCCAGCCUCCUCGGUGGCGCCGGCUGGGCAACAUUCCGAGGGGACCGUCACCUCGGUAAUGGCGAAUGGGACCCA [C26G C62A]  0.985
4. GGUCGGCAUGGUCCCAGCCUCCUCGCUGGCGCCGGCUGGGCAACAUACCGAGGGGACCGUCCCCUCGGUAAUGGCGAAUGGGACCCA [C3U U47A]  0.969
5. GGCCGGCAUGGUCCCAGCCUCCUCGCUGGCGCCGGCUGGGCAACAUCCCGAGGGGACCUUCCCCUCGGUAAUGGCGAAUGGGACCCA [U47C G59U]  0.95
6. GGCCGGCAUGGGCCCAGCCUCCUCGCUGGCGCCGGCUGGGCAACAUUCCGAGGGGACCGUCCCUUCGGUAAUGGCGAAUGGGACCCA [U12G C64U]  0.914
7. GGCCGGCAUGGUCCCAGCCUCCUCGCUGGCGCCGGCUGGGCAACAUUCCGAGGGGAUCGUCCCCUCGGUAAUGGCGAAUGGGACCAA [C57U C86A]  0.882
8. GGCCGGCAUGGUCCCAGCCUCCUCGCUGGCGCCGGCUGGGCAACAUUCCGAGGGGACCGUCCCCUGGGUAAUGGCGAAUGGGACCCU [C66G A87U]  0.853
9. GGCCGGCAUGGUCCCAGCCUCCUCGCUGGCGCCGGCUGGGCAACAUCGCGAGGGGACCGUCCCCUCGGUAAUGGCGAAUGGGACCCA [U47C C48G]  0.804
10. GGCCGGCAUGGUCCCAGCCUCCUCGCUGGCGCCGGCUGGGCAACAUUCCUAGGGGACCGUCCCCUCGGUAAUGGCGAAUGGGACACA [G50U C85A]  0.742
11. GGCCGGCAUGGUCCCAGCCUCCUCGCUGGCGCCGGCUGGGCAACAUUGCGAGGGGACCGUCCCCUCGGUAAAGGCGAAUGGGACCCA [C48G U72A]  0.718
12. GGCCGGCAUGGUCCCAGCCUCCUCGCUGGCGCCGGCUGGGCAACAUUCCGAGUGGACCGUCCCCACGGUAAUGGCGAAUGGGACCCA [G53U U65A]  0.69
13. GGCCGGCAUGGUCCCAGCCUCCUCGCUGGCGCCGGCUGGGCAACAUUCCGAGGGGACCGUCCCCUCGGUAGUGGCGAAUGGGACCUA [A71G C86U]  0.665
14. GGCCGGCAUGGUCCCUGCCUCCUCGCUGGCGCCGGCUGGGCAACAUUCCGAGGGGACCGUCCCCUCGGUAAUGGCGUAUGGGACCCA [A16U A77U]  0.511
15. GGCCUGCAUGGUCCCAGCCUCCUCGCUGGCGCCGGCUGGGCAACAUUCCGAGGGGACCGACCCCUCGGUAAUGGCGAAUGGGACCCA [G5U U60A]  0.447
16. GGCCGGCAUGGUCCCAGCCUCCUCGCUGGCGCCGGCUGGGCAAGAUUCCGAGGGGACCGUCCCCUCGGUAAUGGAGAAUGGGACCCA [C44G C75A]  0.406
17. GGCCGGCCUGGUCCCAGCCUCCUCGCUGGCGCCGGCUGUGCAACAUUCCGAGGGGACCGUCCCCUCGGUAAUGGCGAAUGGGACCCA [A8C G39U]  0.381
18. GGCCGGCAUGGUCUCAGCCUCCUCGCUGGCGCCGGCUGGGCAACAUUCCGAGGGGACCGUCCCCUCGGUAAUGGGGAAUGGGACCCA [C14U C75G]  0.353
19. GGCCGGCAUGGUCCCAGCCUCCUCGCUGGCGCCGGCUGGCCAACAUUCCGAGGGGACCGUCCCCUGGGUAAUGGCGAAUGGGACCCA [G40C C66G]  0.253
20. GGCCGGCAUCGUCCCAGCCUCCUCGCUGGCGCCGGCUGGGCAACCUUCCGAGGGGACCGUCCCCUCGGUAAUGGCGAAUGGGACCCA [G10C A45C]  0.231
21. GGCCGGCAUGGUCCCAGCCUCCUCGCUGGCGCCGGCUGGGCAACAUUCCAAGGGGACCGUCGCCUCGGUAAUGGCGAAUGGGACCCA [G50A C62G]  0.219
22. GGCCGGCAUGGUCCCAGCCUCCUCGCUGGCGCCGGCUAGGCAACAUUCCGAGGGGACCGUCCCCGCGGUAAUGGCGAAUGGGACCCA [G38A U65G]  0.181
23. GGCCGGCAUGGUCCCAGCCUCCUCGCUGGCGCCGGCUGAGCAACAUUCCGAGGGGACCGUCCCCUCGGUAAUGUCGAAUGGGACCCA [G39A G74U]  0.176
24. GGCCGGCAUGGUCCCAGCCUCCUCGCUGGCGCCUGCUGGGCAACAUUCCGAGGGGACCGUCCCCUCGGUAAUGGCGAAUGAGACCCA [G34U G81A]  0.166
25. GGCCGGCAUGGUCCCAGCCCCCUCGCUGGCGCCGGCUGGGCAACAUUCCGAGGGGACCGUCCCCUCGGUAAUGGCGAAUGGGGCCCA [U20C A83G]  0.149
26. GGCCGGCAUGGUCACAGCCUCCUCGCUGGCUCCGGCUGGGCAACAUUCCGAGGGGACCGUCCCCUCGGUAAUGGCGAAUGGGACCCA [C14A G31U]  0.148
27. GCCCGGCAUGGUCCCAGCCUCCUCGCUGGCGCCGGCUGGGCAACAUUCCGAGCGGACCGUCCCCUCGGUAAUGGCGAAUGGGACCCA [G2C G53C]  0.125
28. GGCAGGCAUGGUCCCAGUCUCCUCGCUGGCGCCGGCUGGGCAACAUUCCGAGGGGACCGUCCCCUCGGUAAUGGCGAAUGGGACCCA [C4A C18U]  0.119
29. GGCCGGCAUGGUCCCAGCCUCCUCGCUAGCGCCGGCUGGGCAACAUUCCGAGGGGACCGUCCCCUCGGUAAUGGCGAAUGGGACCCA [G28A]  0.0977
30. GGCCGGCAUGGUCCCAGACUCCUCGCUGGCGCCGGCUGGGCAACAUUCCGAGGGGACCGUCCCCUGGGUAAUGGCGAAUGGGACCCA [C18A C66G]  0.0639
31. GGCCGGCAUGGUCCCAGCCUCCUCGCUGGCGCCGGCUGAGCAUCAUUCCGAGGGGACCGUCCCCUCGGUAAUGGCGAAUGGGACCCA [G39A A43U]  0.0241
32. GGCCUGUAUGGUCCCAGCCUCCUCGCUGGCGCCGGCUGGGCAACAUUCCGAGGGGACCGUCCCCUCGGUAAUGGCGAAUGGGACCCA [G5U C7U]  0
